Results as given in patent publication US20240287172A1 (SCIRHOM, published 2024).
Where a chain is given by its changes, count along the chain named.

T1: human iRhom2, endogenously expressed (human, UniProt Q6PJF5 1-856)
T1 sequence: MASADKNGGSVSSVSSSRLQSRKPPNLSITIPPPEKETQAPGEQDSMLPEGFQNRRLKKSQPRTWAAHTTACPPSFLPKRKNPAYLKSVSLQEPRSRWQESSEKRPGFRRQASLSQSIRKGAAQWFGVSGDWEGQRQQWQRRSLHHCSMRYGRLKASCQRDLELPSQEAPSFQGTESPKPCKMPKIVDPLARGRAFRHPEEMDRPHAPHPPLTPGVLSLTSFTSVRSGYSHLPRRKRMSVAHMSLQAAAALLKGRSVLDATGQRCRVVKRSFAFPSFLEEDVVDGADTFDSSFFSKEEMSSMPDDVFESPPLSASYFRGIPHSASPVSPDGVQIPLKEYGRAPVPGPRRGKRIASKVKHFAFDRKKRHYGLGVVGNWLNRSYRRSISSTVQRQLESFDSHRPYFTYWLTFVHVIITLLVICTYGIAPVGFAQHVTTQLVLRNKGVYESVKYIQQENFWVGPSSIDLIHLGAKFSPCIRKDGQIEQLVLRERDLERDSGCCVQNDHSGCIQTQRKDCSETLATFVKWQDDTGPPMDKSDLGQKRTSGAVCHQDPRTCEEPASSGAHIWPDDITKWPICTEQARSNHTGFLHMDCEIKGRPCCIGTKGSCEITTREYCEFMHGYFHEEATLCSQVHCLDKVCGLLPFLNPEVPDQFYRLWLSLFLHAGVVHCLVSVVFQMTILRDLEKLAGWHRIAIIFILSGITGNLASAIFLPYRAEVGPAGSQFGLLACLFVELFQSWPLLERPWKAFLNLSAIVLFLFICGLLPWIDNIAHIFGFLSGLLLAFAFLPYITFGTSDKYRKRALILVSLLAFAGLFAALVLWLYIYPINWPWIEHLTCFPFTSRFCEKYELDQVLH

T2: dog iRhom2 full length wild type, T7-tagged (dog, UniProt Q00M95 1-827)
T2 construct: whole, on cells; on MEF-DKO cells; also called Dog-iR2-FL-WT-T7
T2 sequence: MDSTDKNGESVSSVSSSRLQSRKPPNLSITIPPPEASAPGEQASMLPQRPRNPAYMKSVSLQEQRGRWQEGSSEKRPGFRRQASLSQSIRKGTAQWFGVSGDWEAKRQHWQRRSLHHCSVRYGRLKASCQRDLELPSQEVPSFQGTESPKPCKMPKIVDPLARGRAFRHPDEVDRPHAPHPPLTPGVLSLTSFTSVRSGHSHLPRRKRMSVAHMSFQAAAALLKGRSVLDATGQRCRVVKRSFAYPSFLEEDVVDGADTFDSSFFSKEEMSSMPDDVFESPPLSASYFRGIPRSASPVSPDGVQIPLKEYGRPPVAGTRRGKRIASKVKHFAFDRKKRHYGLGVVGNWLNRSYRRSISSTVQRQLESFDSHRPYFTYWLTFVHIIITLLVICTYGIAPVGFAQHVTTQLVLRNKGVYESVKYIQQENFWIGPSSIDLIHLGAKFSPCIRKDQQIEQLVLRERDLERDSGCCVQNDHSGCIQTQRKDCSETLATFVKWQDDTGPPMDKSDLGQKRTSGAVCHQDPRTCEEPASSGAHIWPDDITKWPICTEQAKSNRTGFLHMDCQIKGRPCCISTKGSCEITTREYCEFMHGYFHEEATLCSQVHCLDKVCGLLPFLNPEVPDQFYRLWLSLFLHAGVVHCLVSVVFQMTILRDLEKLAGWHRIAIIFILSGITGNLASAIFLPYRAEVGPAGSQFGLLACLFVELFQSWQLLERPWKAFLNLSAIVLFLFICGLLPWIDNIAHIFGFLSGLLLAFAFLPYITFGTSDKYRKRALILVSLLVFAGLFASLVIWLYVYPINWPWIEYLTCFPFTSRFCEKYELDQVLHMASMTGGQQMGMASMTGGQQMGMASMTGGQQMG

T3: human iRhom1, endogenously expressed (human, UniProt Q96CC6 1-855)
T3 construct: also called iRhom1 on RH-30 cells
T3 sequence: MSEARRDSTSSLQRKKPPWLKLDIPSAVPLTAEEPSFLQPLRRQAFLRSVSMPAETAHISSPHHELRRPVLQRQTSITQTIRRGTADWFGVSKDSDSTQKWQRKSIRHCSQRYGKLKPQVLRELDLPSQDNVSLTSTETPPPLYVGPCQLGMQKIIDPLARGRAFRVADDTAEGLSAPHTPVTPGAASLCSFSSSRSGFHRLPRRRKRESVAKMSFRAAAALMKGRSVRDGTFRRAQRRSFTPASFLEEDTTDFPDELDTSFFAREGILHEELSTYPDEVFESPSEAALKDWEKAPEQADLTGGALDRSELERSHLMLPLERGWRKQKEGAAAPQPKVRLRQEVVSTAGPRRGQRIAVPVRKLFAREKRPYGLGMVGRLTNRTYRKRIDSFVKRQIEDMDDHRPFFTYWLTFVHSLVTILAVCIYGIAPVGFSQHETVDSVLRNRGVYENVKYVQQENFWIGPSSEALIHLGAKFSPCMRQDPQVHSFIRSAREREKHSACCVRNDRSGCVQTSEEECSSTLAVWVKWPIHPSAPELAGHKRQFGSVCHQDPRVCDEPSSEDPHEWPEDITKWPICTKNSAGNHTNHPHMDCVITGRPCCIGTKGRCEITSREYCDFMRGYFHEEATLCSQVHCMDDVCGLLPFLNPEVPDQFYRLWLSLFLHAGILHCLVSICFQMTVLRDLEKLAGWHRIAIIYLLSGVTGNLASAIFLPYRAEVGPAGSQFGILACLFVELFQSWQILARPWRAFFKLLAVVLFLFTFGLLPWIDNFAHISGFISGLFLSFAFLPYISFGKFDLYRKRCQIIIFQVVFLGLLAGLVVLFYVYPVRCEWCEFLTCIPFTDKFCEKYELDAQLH

B1: chimeric antibody 34 (antibody, V domains shown)
VH: QVTLKESGPGILQPSQTLSLTCSFSGFSLSTFSLGVGWIRQSSGKGLEWLAHIWWDDEKYYNPALKSRLTISKDTSKNQVFLKIANVDAADTATYYCARAYYSKSYYALDYWGQGTSVTVSS
VL: DIQMTQSPSSLSASLGERVSLTCRASQEISGYLSWLQQKPDGTIKRLIYAASTLDSGVPKRFSGSRSGSDYSLAISSLESEDFADYYCLQYANFPFTFGSGTKLEIK
B2: chimeric antibody 22 (antibody, V domains shown)
VH: QVTLKESGPGILQPSQTLSLTCSFSGFSLSTFGMGVGWIRQPSGKGLEWLAHIWWDDEKYYNSALKSRLTISKATSKNQVFLKIANVDTADTATYYCARISNYGSNYWYFNVWGTGTTVTVSS
VL: QVVLTQSPALMSASPGEKVTMTCSAGSSVSYMYWYQQKPGSSPRVLIYDTSNLASGVPARFTGSGSGTSYSLTISRMEAEDAATYYCQQWNSYPLTFGAGTKLELK
B3: chimeric antibody 42 (antibody, V domains shown)
VH: B2 VH with F24L, M34R, S63P, A74D, K83R, S101Q, N111D
VL: LIVLTQSPAIMSASPGEKVTMTCGATSRISYMFWYQQKPGSSPRVLIYDTSNLASGVPVRFSGSGSGTSYSLTISRVEAEDVATYYCQQWNSYPLTFGAGTKLELK
B4: chimeric antibody 44 (antibody, V domains shown)
VH: B2 VH with G44E, E58D, S63P, A74D, V80I, A85T, D91E, A98S, S101G, N111D
VL: B2 VL with V2I, L10V, S24T, G26S, S30Y, K38T, V45L, A59V, T62S, S92T
B5: chimeric antibody 16 (antibody, V domains shown)
VH: QVTLKESGPGILQPSQTLSLTCSFSGFSLSTFALGVGWIRQPSGRGLEWLAHIWWDDDKYYNPALKSRLTISKDTSKNHVFLKIANVDTADTATYYCARITTYYYGMDYWGQGTSVTVSS
VL: DIVLSQSPATLSVTPGDSVSLFCRASQSIGNHLHWYQQESHASPRLLIKYASQSISGIPSRFSGSGSGTDFTLSINSVETEDFGMYFCQQSYNWPLTFGAGTKLELK
notes: chimeric version of clone #16, made in CHO cells, detected with anti-human IgG; also called ch16; chl6 (so in the source)

Columns and labels:
[1] = target: T1, human iRhom2, endogenously expressed; assay: cell-based or functional assay
[2] = target: T2, dog iRhom2 full length wild type, …; assay: FACS on MEF-DKO-iR2 Dog cells, 3 µg/ml
Method: In brief, immortalized MEF-DKO-EV control cells, MEF-DKO-rhesus-iR2-FL-WT-T7 cells, MEF-DKO-cyno-iR2-FL-WT-T7 cells, MEF-DKO-dog-iR2-FL-WT-T7 cells and MEF-DKO-rabbit-iR2-FL-WT-T7 cells, as well as their respective iRhom1 counterparts, were harvested with 10 mM EDTA in PBS, washed and resuspended in FACS buffer (PBS, 3% FBS, 0.05% sodium azide), and seeded in Nunc U-bottom 96-well plates (Thermo Fisher Scientific, USA) at approximately 3×10⁵ cells per well. To pellet cells and remove supernatants, the plates were centrifuged at 1,500 rpm and 4° C. for 3 minutes. For primary staining, cells were resuspended in 100 μl per well of either FACS buffer alone (controls), mouse monoclonal anti-T7 IgG (Merck Millipore, USA) at 3 μg/ml FACS buffer or the antibodies of the invention also at 3 μg/ml FACS buffer and incubated on ice for 1 hour.
Afterwards, plates were centrifuged at 1,500 rpm and 4° C. for 3 minutes and washed twice with 200 μl per well of FACS buffer. For secondary staining, cells were spun down and resuspended in 100 μl per well of PE-conjugated goat anti-mouse IgG F(ab′)2 detection fragment (Dianova, Germany) diluted 1:100 in FACS buffer. Protected from light, the cell suspensions were incubated on ice for 1 hour. […] Finally, cells were resuspended in 150 μl per well of FACS buffer and analyzed using a BD Accuri™ C6 Plus flow cytometer (Becton Dickinson, Germany).

[3] = target: T3, human iRhom1, endogenously expressed; assay: FACS on RH-30 cells (iRhom1-positive, not iRhom2-positive)

Row | Binder | LPS-induced TNFα release from PBMCs of rheumatoid arthritis patients, percent inhibition, 1 µg/ml, chimeric antibody [1] | PMA-induced HB-EGF release from PBMCs of rheumatoid arthritis patients, percent inhibition, 1 µg/ml, chimeric antibody [1] | PMA-induced HB-EGF release from THP-1 cells, percent inhibition, 3 µg/ml [1] | PMA-induced HB-EGF release from U-937 cells, percent inhibition [1] | PMA-induced IL-6R release from PBMCs of rheumatoid arthritis patients, percent inhibition, 1 µg/ml, chimeric antibody [1] | PMA-induced IL-6R release from U-937 cells, percent inhibition, 3 µg/ml [1] | PMA-induced TNFα release from U-937 cells, percent inhibition, 3 µg/ml [1] | binding result [2] | binding result [3]
1 | B1 | 66.6% | 30.6% | 76.1% | 98.1% | 45.6% | 82.8% | 87.4% |  | 
2 | B2 | 76.5% | 54.7% | 81.9% | 103% | 61.1% | 85.6% | 96.5% |  | 
3 | B3 | 82.1% | 76.1% | 80.8% | 103% | 73.5% | 91.8% | 96.5% |  | 
4 | B4 | 70.2% | 37.8% | 70.7% | 99.2% | 53.1% | 85.2% | 89.2% |  | 
5 | B5 | 83.6% | 66% | 73.6% | 101% | 72.3% | 84.3% | 93.7% | binds | no binding (tested: 3 µg/ml)
